Source: patent US20190276502A1 (OXFORD UNIVERSITY INNOVATION, published 2019)

B1: Recombinant His-tagged Eap protein (C-terminal MAP domain and adjacent basic region of S. aureus Eap) (other)
chain: VPYTIAVNGTSTPILSKLKISNKQLISYKYLNDKVKSVLKSERGISDLDLKFAKQAKYTVYFKNGKKQVVNLKSDIFTPNLFSAKDIKKIDIDVKQYTKSKKNK
notes: not shown: N-terminal His-tag and 3C protease site from vector pOPIN-F
B2: Recombinant EapH1 protein (MAP domain of S. aureus EapH1), His tag excised (other)
chain: PSHEASADSNNGYKEMTVDGYHTVPYTISVDGITALHRTYFIFPENKNVLYQEIDSKVKNELASQRGVTTEKINNAQTATYTLTLNDGNKKVVNLKKNDDAKNSIDPSTIKQIQIVVK
notes: The N-terminal His-tag was removed with HRV 3C protease; also called immobilized EapH1; untagged EapH1

Legend:
[1] = target: T1, Recombinant EapH2 protein (MAP domain of S. aureus EapH2), His tag excised (Staphylococcus aureus Newman, UniProt A0A0H3K729 24-144); test: plate interaction assay (EIA): untagged protein immobilised, His-tagged ligand titrated, anti-His alkaline phosphatase detection, Kd by non-linear regression
T1 construct: The N-terminal His-tag was removed with HRV 3C protease; also called immobilized EapH2; untagged EapH2
T1 sequence: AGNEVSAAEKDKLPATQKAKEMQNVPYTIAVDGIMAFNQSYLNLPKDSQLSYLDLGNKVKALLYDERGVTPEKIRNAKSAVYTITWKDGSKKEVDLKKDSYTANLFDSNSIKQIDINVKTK

[2] = target: T2, Recombinant Eap protein (C-terminal MAP domain and adjacent basic region of S. aureus Eap), His tag excised (Staphylococcus aureus Newman, UniProt A6QIG2 481-584); test: as above
T2 construct: The tag was removed with HRV 3C protease before coating on the plate; also called immobilized Eap; untagged Eap
T2 sequence: B1 chain

[3] = target: T3, Recombinant His-tagged EapH2 protein (MAP domain of S. aureus EapH2) (Staphylococcus aureus Newman, UniProt A0A0H3K729 24-144); test: plate interaction assay (EIA): untagged protein immobilised, His-tagged ligand titrated, anti-His alkaline phosphatase detection
T3 construct: Made in E. coli and used as the soluble His-tagged ligand; not shown: N-terminal His-tag and 3C protease site from vector pOPIN-F
T3 sequence: T1 sequence

| Binder | Kd [1] | Kd [2] | binding result [3] |
| --- | --- | --- | --- |
| B1 | 82 nM | 80 nM |  |
| B2 |  |  | binds |
